{
  "source": "paper PMC4519180",
  "about": "(2015)",
  "molecular_target": "recombinant purified ABL SH3 domain alone (human)",
  "sequence (chain, as listed by the source)": "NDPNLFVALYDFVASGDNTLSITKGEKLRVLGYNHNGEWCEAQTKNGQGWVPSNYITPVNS",
  "note": "No end group written: not given here. *: point of attachment. 6FAM = O=C1OC2(c3ccc(O)cc3Oc3cc(O)ccc32)c2cc(C(=O)*)ccc21",
  "data": [
    {"binder": "APSYSPPPPP", "note": "[unlabeled p41 peptide]", "values": [
      {"measurement": "Kd", "value": 1500, "unit": "nM"}
    ]},
    {"binder": "6FAM-APTMPPPLPP", "note": "[3BP-1 probe peptide, labeled with 6-carboxyfluorescein]", "values": [
      {"measurement": "Kd", "value": 34000, "unit": "nM"}
    ]},
    {"binder": "6FAM-APTYPPPLPP", "note": "[p40 probe peptide, labeled with 6-carboxyfluorescein]", "values": [
      {"measurement": "Kd", "value": 400, "unit": "nM"}
    ]}
  ]
}
